Data on 5 molecules can be found in patent publication US20250277032A1 (published 2025).

Sequences and labels used below:
B1: h5E5-42 (antibody, V domains shown)
VH: QVQLVQSGAEVKKPGASVKVSCKASGYSFSGFYIDWVKQPPGKGLEWIGYIFPSNGETSYNQKFKGRVTMTVDKSTSTVYMELSSLRSEDTAVYYCARQAFYYFDYWGQGTTVTVSS
VL: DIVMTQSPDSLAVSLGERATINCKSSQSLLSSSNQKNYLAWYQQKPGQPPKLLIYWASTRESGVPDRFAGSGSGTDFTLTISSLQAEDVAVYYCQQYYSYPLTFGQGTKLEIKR
B2: h5E5-84 (antibody, V domains shown)
VH: EVQLVQSGAEVKKPGASVKVSCKASGYSFSGFYIDWVKQPPGKGLEWIGYIFPSNGETSYNQKFKGRATMTVDKSTSTVYMELSSLRSEDTAVYYCARQAFYYFDYWGQGTTVTVSS
VL: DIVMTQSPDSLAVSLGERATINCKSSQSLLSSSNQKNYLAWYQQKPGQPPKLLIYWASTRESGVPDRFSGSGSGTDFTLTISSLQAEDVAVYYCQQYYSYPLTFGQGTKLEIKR
B3: h5E5-73 (antibody, V domains shown)
VH: QVQLVQSGAEVKKPGASVKVSCKASGYSFTGFYIDWVKQPPGKGLEWIGYIFPSNGETSYNQKFKGRVTMTVDKSTSTVYMELSSLRSEDTAVYYCARQAFYYFDSWGQGTTVTVSS
VL: DIVMTQSPDSLAVSLGERATINCKSSQSLLSSSNQKNYLAWYQQKPGQAPRLLIYWASTRESGVPDRFAGSGSGTDFTLTISSLQAEDVAVYYCQQYYSYPLTFGQGTKLEIKR
B4: h5E5-22 (antibody, V domains shown)
VH: EVQLVQSGAEVKKPGASVKVSCKASGYSFTGFYIDWVKQPPGKGLEWIGYIFPSNGETSYNQKFKGRATMTVDKSTSTVYMELSSLRSEDTAVYYCARQAFYYFDYWGQGTTVTVSS
VL: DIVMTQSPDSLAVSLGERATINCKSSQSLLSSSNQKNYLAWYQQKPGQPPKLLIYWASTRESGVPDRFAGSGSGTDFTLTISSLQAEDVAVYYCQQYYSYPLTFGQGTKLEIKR
B5: h5E5-83 (antibody, V domains shown)
VH: EVQLVQSGAEVKKPGASVKVSCKASGYSFSGFYIDWVKQPPGKGLEWIGYIFPSNGETSYNQKFKGRATMTVDKSTSTVYMELSSLRSEDTAVYYCARQAFYYFDYWGQGTTVTVSS
VL: DIVMTQSPDSLAVSLGERATINCKSSQSLLSSSNQKNYLAWYQQKPGQAPRLLIYWASTRESGVPDRFAGSGSGTDFTLTISSLQAEDVAVYYCQQYYSYPLTFGQGTKLEIKR

This assay concerns the target human ILT3 (binding and competition assays, construct not stated) (human, UniProt Q8NHJ6 22-259). Description: binding to hILT3 (relative binding).
With B1, the EC50 was 0.05 µg/mL. Next, B2: 0.08 µg/mL; B3: 0.09 µg/mL; B4: 0.08 µg/mL. Next, B5: 0.1 µg/mL.

In general, EC50 refers to the concentration that produces a half-maximal response.
